In US20210244815A1 (Genentech, published 2021):
Values belong to the binder of their own block, whether it stands above or below them.

Legend:
CD3ε = target: T1, CD3ε (UniProt P07766 23-126, limits assumed); assay: SPR, Biacore T200, CD3ε immobilized on CM5, Fab injected
T1 construct: The antigen in the Biacore assay is called only 'CD3ε'; also called CD3ε antigen
Experimental: The binding affinity of selected Fab variants for CD3ε was measured by SPR with a BIACORE® T200 instrument. Briefly, a series S sensor chip CM5 was activated with 1-ethyl-3-(3-dimethylaminopropyl) carbodiimide (EDC) and N-hydroxysuccinimide (NHS) reagents according to the supplier's instructions, and 5 μg/ml CD3ε in 10 mM sodium acetate (pH4.0) was coupled to achieve 100 response units (RU), except for FC1 (which served as a reference). Unreacted groups were then blocked with 1 M ethanolamine. Next, three-fold serial dilutions of Fab in HBS-P buffer (0.01 M HEPES pH 7.4, 0.15M NaCl, 0.005% surfactant P20) from low (0.02 nM) to high (20 nM) were injected (flow rate: 30 μl/min). The binding responses on Fab were corrected by subtracting of RU from a blank flow cell. The sensorgram was recorded and subject to reference and buffer subtraction before evaluating by BIACORE® T200 Evaluation Software (Version 2.0). Association rates (kₐ) and dissociation rates (kd) were calculated using a simple one-to-one Langmuir binding model. The equilibrium dissociation constant (KD) was calculated as the ratio of kd/kₐ. The binding affinity kinetics were determined for a high-affinity anti-CD3 Fab, 38E4v11, having the heavy chain and light chain variable domain sequences set forth in FIG. 1.

CD3 = assay: method not stated
CD3, sequence (P07766 22-207): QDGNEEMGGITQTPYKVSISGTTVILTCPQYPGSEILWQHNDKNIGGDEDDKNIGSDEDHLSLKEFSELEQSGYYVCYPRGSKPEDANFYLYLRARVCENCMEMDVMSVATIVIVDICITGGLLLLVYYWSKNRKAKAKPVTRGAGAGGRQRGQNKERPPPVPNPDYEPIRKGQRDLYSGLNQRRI

T1 sequence (P07766 23-126 limits assumed): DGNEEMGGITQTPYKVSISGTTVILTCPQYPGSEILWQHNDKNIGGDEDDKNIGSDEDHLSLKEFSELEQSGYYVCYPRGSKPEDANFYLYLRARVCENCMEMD

fold increase in binding affinity relative to parent 38E4v1 (CD3ε): > 10 fold
B1: anti-CD3 Fab 38E4v11 (Fab, V domains shown)
VH: EVQLVQSGAEVKKPGASVKVSCKASGFTFTSYYIHWVRQAPGQGLEWIGWIYPENDNTKYNEKFKDRVTITADTSTSTAYLELSSLRSEDTAVYYCARDGYSRYYFDYWGQGTLVTVSS
VL: DIVMTQSPDSLAVSLGERATINCKSSQSLLNSRTRKNYLAWYQQKPGQSPKLLIYWTSTRKSGVPDRFSGSGSGTDFTLTISSLQAEDVAVYYCTQSFILRTFGQGTKVEIK
notes: Tested as a Fab from a mammalian Fab expression construct with a Flag tag (293T cells, purified on an anti-Flag column)

Kd (CD3): 51 nM
B2: Ly6G6D (40G5c) TDB (bispecific antibody, part only; not given: anti-Ly6G6D arm and constant regions, V domains shown, not shown: another chain or arm of the molecule; a dimerising Fc or GST; small tags and cut ends)
VH: QVQLQQSGPELVKPGASVKISCKASGYTFTNYYIHWVKQRPGQGLEWIGWIYPGDGNTKYNEKFKGKATLTADTSSSTAYMQLSSLTSEDSAVYYCARDSYSNYYFDYWGQGTTLTVSS
VL: DIVMTQSPSSLAVSAGEKVTMSCKSSQSLLNSRTRKNYLAWYQQKPGQSPKLLIYWASTRESGVPDRFTGSGSGTDFTLTISSVQAEDLAVYYCTQSFILRTFGGGTKLEIK
